Assay results: patent publication US20190225692A1 (JUNO THERAPEUTICS, published 2019)

Assays:
[1] = target: HPV 16 E6(29-38) peptide in the context of HLA-A02:01 on target cells (human; HPV 16); experiment: cell-based or functional assay
[2] = target: HPV 16 E7(11-19) peptide in the context of HLA-A02:01 on target cells (human; HPV 16); experiment: cell-based or functional assay
[3] = target: T1, HLA-A2/E6 (29-38) tetramer (human; HPV 16); experiment: tetramer flow cytometry; transfected 1:1 CD4+ and CD4+/CD8+ Jurkat-derived cells;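 note: cell mixtures transiently transfected with TCR-encoding plasmids, analysed by flow cytometry 48 h later after HLA-A*02:01 E6 tetramer staining combined with anti-CD8 antibody co-staining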
T1 construct: also called E6(29-38) peptide-MHC tetramer; E6(29-38)-loaded tetramer
Experimental: (§1) For transfection, the CD4+ and CD4+/CD8+ cell mixtures were transiently transfected with TCR-encoding plasmids and 48 hours after transfection, cells were assessed by flow cytometry for (1) binding of the target peptide in the context of an MHC molecule (HLA:A02:01) by staining with an E6(29-38) peptide- or an E7(11-19) peptide-MHC tetramer reagent, and/or (2) CD8+ independent binding of the target by co-staining the tetramer-labeled cells with an anti-CD8 antibody.

[4] = target: T1, HLA-A2/E6 (29-38) tetramer; experiment: tetramer flow cytometry; transfected Jurkat-derived cells, CD8+ population
Experimental: as §1

Row | Binder | % CD8+/IC IFNγ+; transduced primary CD8+ T cells with T2 cells pulsed with 10 uM E6(29-38) peptide, E:T 10:1, 4 h [1] [%] | % CD8+/IC IFNγ+; transduced primary CD8+ T cells with T2 cells pulsed with 10 uM E7(11-19) peptide (control peptide), E:T 10:1, 4 h [2] [%] | % cells in E6 tet+/CD8+ quadrant [3] [%] | % cells in E6 tet+/CD8- quadrant [3] [%] | % cells in E6 tet-/CD8+ quadrant [3] [%] | % cells in E6 tet-/CD8- quadrant [3] [%] | % cells in E6 tet+/CD8+ quadrant [4] [%] | % cells in E6 tet+/CD8- quadrant [4] [%] | % cells in E6 tet-/CD8+ quadrant [4] [%] | % cells in E6 tet-/CD8- quadrant [4] [%]
1 | modified version of TCR 7 (codon optimized, cysteine modified) (TCR, V domains shown) V domain 1: KNQVEQSPQSLIILEGKNCTLQCNYTVSPFSNLRWYKQDTGRGPVSLTIMTFSENTKSNGRYTATLDADTKQSSLHITASQLSDSASYICVVSRDNYGQNFVFGPGTRLSVLP V domain 2: EPEVTQTPSHQVTQMGQEVILRCVPISNHLYFYWYRQILGQKVEFLVSFYNNEISEKSEIFDDQFSVERPDGSNFTLKIRSTKLEDSAMYFCAITDRTNYGYTFGSGTRLTVVE | 70.5 |  |  |  |  |  |  |  |  | 
2 | modified version of TCR 4 (codon optimized, cysteine modified) (TCR) TCR alpha: DAKTTQPNSMESNEEEPVHLPCNHSTISGTDYIHWYRQLPSQGPEYVIHGLTSNVNNRMASLAIAEDRKSSTLILHRATLRDAAVYYCILLVIRGTSYGKLTFGQGTILTVHPNIQNPDPAVYQLRDSKSSDKSVCLFTDFDSQTNVSQSKDSDVYITDKCVLDMRSMDFKSNSAVAWSNKSDFACANAFNNSIIPEDTFFPSPESSCDVKLVEKSFETDTNLNFQNLSVIGFRILLLKVAGFNLLMTLRLWSS TCR beta: DTGVSQDPRHKITKRGQNVTFRCDPISEHNRLYWYRQTLGQGPEFLTYFQNEAQLEKSRLLSDRFSAERPKGSFSTLEIQRTEQGDSAMYLCASSPGGGNTEAFFGQGTRLTVVEDLNKVFPPEVAVFEPSEAEISHTQKATLVCLATGFFPDHVELSWWVNGKEVHSGVCTDPQPLKEQPALNDSRYCLSSRLRVSATFWQNPRNHFRCQVQFYGLSENDEWTQDRAKPVTQIVSAEAWGRADCGFTSVSYQQGVLSATILYEILLGKATLYAVLVSALVLMAMVKRKDF | 94.2 | 2.5 |  |  |  |  |  |  |  | 
3 | TCR 21 (codon optimized, cysteine modified version) (TCR, V domains shown) V domain 1: AQKITQTQPGMFVQEKEAVTLDCTYDTSDQSYGLFWYKQPSSGEMIFLIYQGSYDEQNATEGRYSLNFQKARKSANLVISASQLGDSAMYFCAMREGRVTGGGNKLTFGTGTQLKVEL V domain 2: NAGVTQTPKFQVLKTGQSMTLQCAQDMNHNSMYWYRQDPGMGLRLIYYSASEGTTDKGEVPNGYNVSRLNKREFSLRLESAAPSQTSVYFCASRPWGNQNTEAFFGQGTRLTVVE |  |  | 28.8 | 32.7 | 7.16 | 31.3 | 51.6 | 0.22 | 46 | 2.18
4 | TCR 27 (codon optimized, cysteine modified version) (TCR, V domains shown) V domain 1: DAKTTQPNSMESNEEEPVHLPCNHSTISGTDYIHWYRQLPSQGPEYVIHGLTSNVNNRMASLAIAEDRKSSTLILHRATLRDAAVYYCILRVPPQSGGYQKVTFGTGTKLQVIP V domain 2: NAGVTQTPKFQVLKTGQSMTLQCAQDMNHNSMYWYRQDPGMGLRLIYYSASEGTTDKGEVPNGYNVSRLNKREFSLRLESAAPSQTSVYFCASSEFGSLNEKLFFGSGTQLSVLE |  |  | 15.8 | 3.5 | 20.1 | 60.6 | 24.5 | 0.02 | 73.5 | 1.96
5 | modified version of TCR 5 (codon optimized, cysteine modified) (TCR, V domains shown) V domain 1: AQKITQTQPGMFVQEKEAVTLDCTYDTSDQSYGLFWYKQPSSGEMIFLIYQGSYDEQNATEGRYSLNFQKARKSANLVISASQLGDSAMYFCAMREGTGTSYGKLTFGQGTILTVHP V domain 2: DVKVTQSSRYLVKRTGEKVFLECVQDMDHENMFWYRQDPGLGLRLIYFSYDVKMKEKGDIPEGYSVSREKKERFSLILESASTNQTSMYLCASSPWGETHQPQHFGDGTRLSILE | 43.7 | 7.22 |  |  |  |  |  |  |  | 
6 | TCR 23 (codon optimized, cysteine modified version) (TCR, V domains shown) V domain 1: AQKITQTQPGMFVQEKEAVTLDCTYDTSDQSYGLFWYKQPSSGEMIFLIYQGSYDEQNATEGRYSLNFQKARKSANLVISASQLGDSAMYFCAMSPPGGSARQLTFGSGTQLTVLP V domain 2: DVKVTQSSRYLVKRTGEKVFLECVQDMDHENMFWYRQDPGLGLRLIYFSYDVKMKEKGDIPEGYSVSREKKERFSLILESASTNQTSMYLCASSPWGQSNQPQHFGDGTRLSILE |  |  | 52.5 | 22.5 | 5.19 | 19.7 | 43.6 | 0.18 | 54.1 | 2.14
7 | TCR 18 (codon optimized, cysteine modified version) (TCR, V domains shown) V domain 1: KQEVTQIPAALSVPEGENLVLNCSFTDSAIYNLQWFRQDPGKGLTSLLLIQSSQREQTSGRLNASLDKSSGRSTLYIAASQPGDSATYLCAEGNAGGTSYGKLTFGQGTILTVHP V domain 2: DVKVTQSSRYLVKRTGEKVFLECVQDMDHENMFWYRQDPGLGLRLIYFSYDVKMKEKGDIPEGYSVSREKKERFSLILESASTNQTSMYLCASSFWGRSNSPLHFGNGTRLTVTE |  |  | 23.3 | 3.61 | 12 | 61.1 | 50.4 | 0.045 | 47.7 | 1.86
8 | TCR 24 (codon optimized, cysteine modified version) (TCR, V domains shown) V domain 1: AQKITQTQPGMFVQEKEAVTLDCTYDTSDQSYGLFWYKQPSSGEMIFLIYQGSYDEQNATEGRYSLNFQKARKSANLVISASQLGDSAMYFCAMREGRGDSWGKLQFGAGTQVVVTP V domain 2: DVKVTQSSRYLVKRTGEKVFLECVQDMDHENMFWYRQDPGLGLRLIYFSYDVKMKEKGDIPEGYSVSREKKERFSLILESASTNQTSMYLCASSPFGRGSYEQYFGPGTRLTVTE |  |  | 55 | 23.5 | 5.56 | 16 | 29.1 | 0.13 | 66.2 | 4.51
9 | TCR 17 (codon optimized, cysteine modified version) (TCR, V domains shown) V domain 1: AQKITQTQPGMFVQEKEAVTLDCTYDTSDPSYGLFWYKQPSSGEMIFLIYQGSYDQQNATEGRYSLNFQKARKSANLVISASQLGDSAMYFCAMREGRGDKIIFGKGTRLHILP V domain 2: DVKVTQSSRYLVKRTGEKVFLECVQDMDHENMFWYRQDPGLGLRLIYFSYDVKMKEKGDIPEGYSVSREKKERFSLILESASTNQTSMYLCASSLWGRSNQPQHFGDGTRLSILE |  |  | 36.2 | 21.3 | 7.72 | 34.8 | 34.7 | 0.17 | 63.6 | 1.53
